This is an account of results in publication PMC4103810, “Flexibility of PCNA-Protein Interface Accommodates Differential Binding Partners” (PLoS ONE, 2014).

No end group written: not given here. *: point of attachment. FITC = O=C1OC2(c3ccc(O)cc3Oc3cc(O)ccc32)c2ccc(NC(=S)*)cc21; Ahx = NCCCCCC(=O)O

Data set [1] concerns the target T1, recombinant PCNA protein (Homo sapiens, UniProt P12004). In words: Fluorescence polarization competition assay (displacement of FITC-PL peptide from PCNA). Details: (His)6 (N); TEV protease recognition site (N); made in house; host or cells: E. coli BL21(DE3). Type of data set: binding. Here is the method:
(3) and represented as mean ± standard error of mean (Y). Fraction of the FITC-PL peptide bound (Y) was plotted as a function of the logarithm of the 12 amino acid peptide antagonist concentration (X), and IC50 values were determined by fitting the data to Eq. […] Anisotropy values were also analyzed using complete and incomplete binding models without non-specific effects as outlined in Roehrl et al..

The target in data set [2] is T1, recombinant PCNA protein. As to the kind of experiment: ITC. As to conditions: cited from earlier work.
Data set [3] can be described thus: Aggregation observed in the fluorescence polarization competition assay. Type of data set: physicochemical. As to conditions: FP competition assay, binding buffer; result in words. How it is done:
Competition assays were analyzed by fluorescence polarization on a DTX880 Multimode plate reader (Beckman Coulter) using an excitation of 485 nm and an emission filter at 535 nm at 30°C. Anisotropy values (N = 4) were statistically evaluated using Grubbs' test for outliers at a significance level of 0.05 and converted to fraction of FITC-PL peptide bound (fb) using Eq. (3) and represented as mean ± standard error of mean (Y).

Data set [4] deals with T2, recombinant PCNA protein (N-terminal (His)6-PCNA) (human, UniProt P12004 1-261).
T2 construct: PCNA, human; amplified by PCR from a template plasmid (Genecoepia) into pEV-L8, which has an N-terminal (His)6-tag and a TEV protease recognition site; No TEV cleavage is described; also called human PCNA; source: E. coli BL21(DE3), purified (Ni-NTA)
T2 sequence (P12004 whole entry): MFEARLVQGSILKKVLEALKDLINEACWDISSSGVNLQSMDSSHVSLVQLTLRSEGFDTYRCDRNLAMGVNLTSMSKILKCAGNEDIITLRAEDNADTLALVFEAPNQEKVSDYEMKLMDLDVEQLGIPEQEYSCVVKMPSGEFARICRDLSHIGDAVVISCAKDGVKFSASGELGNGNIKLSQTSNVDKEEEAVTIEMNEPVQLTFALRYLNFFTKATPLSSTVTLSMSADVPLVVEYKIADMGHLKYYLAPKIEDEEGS
In words: fluorescence polarisation; competition: increasing unlabeled peptide with 50 nM FITC-PL peptide and 1 µM PCNA (monomer concentration); 25 mM HEPES pH 7.4, 10% glycerol, 0.01% Triton X-100; 30 min at room temperature, read at 30°C; Ki from a modified Cheng-Prusoff equation. As to conditions: both partners purified.

In data set [5] the target is T2, recombinant PCNA protein (N-terminal …). Described as above. As to conditions: both partners purified. This is another data set of the same source.
Data set [6] deals with T3, recombinant PCNA protein (human, UniProt P12004 1-261).
T3 construct: PCNA (proliferating cell nuclear antigen), human; The vector has a TEV protease site after the (His)6 tag, and no cleavage is described; also called (His)6-PCNA; source: E. coli BL21(DE3), purified (Ni-NTA, dialysis)
T3 sequence (P12004 whole entry): as above
In words: fluorescence polarisation; competition: increasing unlabeled 12-mer peptide against 50 nM N-terminal FITC-PL peptide and 1 µM PCNA (monomer concentration); 25 mM HEPES pH 7.4, 10% glycerol, 0.01% Triton X-100; 30 min at room temperature, read at 30°C; fraction of FITC-PL bound fitted to the complete (Eq. 6) or incomplete (Eq. 7, four-state) competition model of Roehrl et al.; estimated dissociation constants. As to conditions: both partners purified.

Data set [7] addresses T2, recombinant PCNA protein (N-terminal …). As to the kind of experiment: fluorescence polarisation; direct binding: increasing recombinant PCNA (monomer concentration) added to 50 nM FITC-PL peptide; 25 mM HEPES pH 7.4, 10% glycerol, 0.01% Triton X-100; 30 min at room temperature, read at 30°C; fit with a Hill slope. The conditions noted are these: both partners purified.

T1 sequence (P12004 whole entry): as above

For RRQTSMTDFYHS-NH2 [p21], the Kd was 615 ± 251 nM on recombinant PCNA protein [1] (estimated dissociation constant of competitive ligand-PCNA interaction, Roehrl et al. binding models, Eq. (6)/(7), read-out: Kd2) and 3100 ± 200 nM at recombinant PCNA protein [1] (incomplete competition model (four state), Roehrl et al., Eq. (7), read-out: Kd3).

For the molecule “NRQVSITGFFQR [DNA polymerase δ (p66 subunit), 12-amino acid PIP Box peptide modeled after the p66 subunit of DNA polymerase δ]”, the “Hill Slope” value on recombinant PCNA protein [1] (Hill slope n of the fit to Eq. (4), 50 nM FITC-PL, 1 µM PCNA (monomer)) was −1.2±0.2.

For the molecule “p21 12-mer PIP box peptide PIP box (from UniProt P38936)”, the Kd with recombinant PCNA protein [2] was 640 nM.

In the case of GVQRNHETAFQG [Mcl-1], at recombinant PCNA protein [1] (result in words), the “binding to recombinant PCNA in the competition assay” value is given as “did not bind”. For the same molecule, the “aggregation of the tracer at higher concentrations” value in data set [3] is “not observed”.

B1: p21 12-mer PIP Box peptide mimic (peptide)
peptide: RRQTSMTDFYHS
notes: 12-mer modeled after the C-terminal PIP Box of the tumor suppressor p21; Synthesised on CLEAR Amide resin, so the C-terminus is probably an amide (surmised); also called p21 peptide; p21 12-amino acid peptide; source: synthetic peptide (solid phase, HPLC purified)
Take B1: in data set [4], the 50% inhibitory concentration (IC50) was found to be 1.8 ± 0.5 µM, the inhibitory constant (Ki) was 0.477 µM and the “fb at [peptide]max (fraction of FITC-PL bound)” value (shortened to “fb … (fraction of FITC-PL bound)”) stood at 0.25.

B2: Abl 12-mer PIP Box peptide mimic (peptide)
peptide: PGQRSISLRYEG
notes: Synthesised on CLEAR Amide resin, so the C-terminus is probably an amide (surmised); also called Abl peptide; source: synthetic peptide (solid phase, HPLC purified)
Take B2: in data set [4], the IC50 came out at 71.3 ± 12.1 µM, the Ki turned out to be 30.4 µM and the “fb … (fraction of FITC-PL bound)” value came to 0.1.

B3: unlabeled POGO-ligase (PL) peptide (peptide)
peptide: SAVLQKKITDYFHPKK
notes: Synthesised on CLEAR Amide resin, so the C-terminus is probably an amide (surmised); also called control PL peptide; source: synthetic peptide (solid phase, HPLC purified)
B3: the IC50 in data set [5] came out at 144 ± 13 nM. Also, in data set [4], the IC50 is 0.145 ± 0.013 µM, the inhibition constant (Ki) came out at 0.136 µM and the “fb … (fraction of FITC-PL bound)” value was determined as 0.

B4: DNA polymerase δ (p66 subunit) 12-mer PIP Box peptide (peptide)
peptide: NRQVSITGFFQR
notes: PIP Box stretch of the p66 subunit of DNA polymerase δ (POLD3); Made on CLEAR Amide resin, so the C-terminus is probably an amide; source: synthetic peptide (solid phase, HPLC purified)
B4: in the data set with recombinant PCNA protein [6], the Kd is 20.8 ± 4.4 µM.

B5: Akt 12-mer reverse PIP Box peptide (peptide)
peptide: HRFFAGIVWQHV
notes: reverse PIP Box stretch of Akt, found by screening the human genome; Made on CLEAR Amide resin, so the C-terminus is probably an amide; source: synthetic peptide (solid phase, HPLC purified)
B5: in the data set with recombinant PCNA protein [6], the Kd was 2 ± 0.4 µM.

B6: Abl 12-mer PIP Box peptide (peptide)
peptide: PGQRSISLRYEG
notes: PIP Box stretch of Abl (ABL1), lying in the SH2 domain; Made on CLEAR Amide resin, so the C-terminus is probably an amide; source: synthetic peptide (solid phase, HPLC purified)
Take B6: the Kd in the data set with recombinant PCNA protein [6] is 52.9 ± 14.7 µM.

B7: DNA polymerase δ (p66 subunit) 12-mer PIP Box peptide mimic (peptide)
peptide: NRQVSITGFFQR
notes: 12-mer modeled after the PIP Box of the p66 subunit of DNA polymerase δ; Synthesised on CLEAR Amide resin, so the C-terminus is probably an amide (surmised); also called p66 peptide; source: synthetic peptide (solid phase, HPLC purified)
In the case of B7, in data set [4], the 50% inhibitory concentration (IC50) turned out to be 67.9 ± 15.8 µM, the inhibition constant (Ki) was found to be 28.9 µM and the “fb … (fraction of FITC-PL bound)” value is 0.

B8: PI3K (p85α subunit) 12-mer PIP Box peptide (peptide)
peptide: TLQYLLKHFFKL
notes: PIP Box stretch of the PI3-kinase p85α regulatory subunit (PIK3R1), found by screening the human genome; Made on CLEAR Amide resin, so the C-terminus is probably an amide; also called PI3-kinase (p85α regulatory domain); source: synthetic peptide (solid phase, HPLC purified)
In the case of B8, the Kd in the data set with recombinant PCNA protein [6] is 1.6 ± 0.6 µM.

B9: PI3K (p85α subunit) 12-mer PIP Box peptide mimic (peptide)
peptide: TLQYLLKHFFKL
notes: 12-mer modeled after the PIP Box of PI3-kinase p85α, found by a screen of the human genome; Synthesised on CLEAR Amide resin, so the C-terminus is probably an amide (surmised); also called p85α peptide; PI3-kinase (p85α regulatory domain); source: synthetic peptide (solid phase, HPLC purified)
Regarding B9, in data set [4], the concentration for half-maximal inhibition (IC50) was determined as 7.5 ± 0.3 µM, the inhibition constant Ki turned out to be 2.9 µM and the “fb … (fraction of FITC-PL bound)” value worked out at 0.

B10: Akt 12-mer reverse PIP Box peptide mimic (peptide)
peptide: HRFFAGIVWQHV
notes: 12-mer modeled after the reverse PIP Box of Akt, found by a screen of the human genome; Synthesised on CLEAR Amide resin, so the C-terminus is probably an amide (surmised); also called Akt peptide; reverse-PIP Box Akt peptide; source: synthetic peptide (solid phase, HPLC purified)
On to B10, for which, in data set [4], the IC50 is 8.5 ± 4.2 µM, the inhibitory constant (Ki) is 3.4 µM and the “fb … (fraction of FITC-PL bound)” value came out at 0.06.

B11: N-terminal fluorescein isothiocyanate (FITC) labeled PL peptide (peptide)
peptide: {FITC-Ahx}-SAVLQKKITDYFHPKK
notes: Synthesised on CLEAR Amide resin, so the C-terminus is probably an amide (surmised); also called FITC-PL peptide; FITC-PL; source: synthetic peptide (solid phase, HPLC purified)
As to B11, in data set [7], the Kd came to 760 ± 19 nM.
